“And” between values parts separate entries of the source, which are not always exact repeats. Identical values can stand only once.
Target: RBD-iFcv1 (SARS-CoV-2; human, 23 residues replaced …)

B1: His-tagged CD64 (Acrobiosystems, FCA-H52H1) (receptor)
chain: QVDTTKAVITLQPPWVSVFQEETVTLHCEVLHLPGSSSTQWFLNGTATQTSTPSYRITSASVNDSGEYRCQRGLSGRSDPIQLEIHRGWLLLQVSSRVFTEGEPLALRCHAWKDKLVYNVLYYRNGKAFKFFHWNSNLTILKTNISHNGTYHCSGMGKHRYTSAGISVTVKELFPAPVLNASVTSPLLEGNLVTLSCETKLLLQRPGLQLYFSFYMGSKTLRGRNTSSEYQILTARREDSGLYWCEAATEDGNVLKRSPELELQVLGLQLPTP
With B1 the Kd was 2.34 nM and 1.61 nM and 0.963 nM and the kon was 260000 M⁻¹ s⁻¹ and 189000 M⁻¹ s⁻¹ and 200000 M⁻¹ s⁻¹.

From patent US20230310584A1 (published 2023)
